Laboratory results from patent US20110033929A1.

Assays:
human Langerin (human) [1] = biological target: human Langerin (human) (UniProt Q9UJ71); experiment: immunogold electron microscopy, 4° C., Langerhans cells of epidermal cell suspensions; isotype control for DCGM4
human Langerin (human) [2] = biological target: human Langerin (human) (UniProt Q9UJ71); experiment: immunogold electron microscopy, 4° C., 5 nm gold goat anti-mouse IgG, Langerhans cells of epidermal cell suspensions
human Langerin (human) [3] = biological target: human Langerin (human) (UniProt Q9UJ71); experiment: cell-based or functional assay

Sequence of UniProt Q9UJ71 (Q9UJ71 whole entry V278A): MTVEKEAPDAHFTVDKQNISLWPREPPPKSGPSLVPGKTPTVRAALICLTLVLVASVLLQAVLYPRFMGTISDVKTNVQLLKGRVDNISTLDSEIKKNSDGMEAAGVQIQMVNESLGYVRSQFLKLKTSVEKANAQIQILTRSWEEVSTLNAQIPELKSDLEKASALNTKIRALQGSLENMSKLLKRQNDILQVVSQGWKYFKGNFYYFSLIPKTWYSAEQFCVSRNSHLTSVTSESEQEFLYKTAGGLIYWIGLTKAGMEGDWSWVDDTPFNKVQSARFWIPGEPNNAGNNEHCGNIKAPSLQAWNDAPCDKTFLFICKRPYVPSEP

Row | gold granules/100 µm membrane (granules/100 µm) (human Langerin (human) [1]) | gold granules/100 µm membrane (gold granules/100 µm membrane) (human Langerin (human) [2]) | half-life (t1/2) of DCGM4 at the cytomembrane (human Langerin (human) [3]) [min] | internalization (decrease of cell-surface-bound antibody by FACS) (human Langerin (human) [3]) [%] | internalization rate k (human Langerin (human) [3]; scale: °/min) | Substance
1 | 1.3 |  |  |  |  | control mouse IgG1 (Sigma) (antibody)
2 |  | 162 | 4.5 | 75 | 15.3 | monoclonal antibody DCGM4
